# According to PMC10175746:
# Molecular target: pyruvate kinase isoform M2 (PKM2) (mouse (endogenous in Th17 cells)) (UniProt P52480)
# Chain of pyruvate kinase isoform M2 (PKM2), P52480 1-531 (enzyme; other documents disagree on this pair) (P52480 whole entry, canonical isoform): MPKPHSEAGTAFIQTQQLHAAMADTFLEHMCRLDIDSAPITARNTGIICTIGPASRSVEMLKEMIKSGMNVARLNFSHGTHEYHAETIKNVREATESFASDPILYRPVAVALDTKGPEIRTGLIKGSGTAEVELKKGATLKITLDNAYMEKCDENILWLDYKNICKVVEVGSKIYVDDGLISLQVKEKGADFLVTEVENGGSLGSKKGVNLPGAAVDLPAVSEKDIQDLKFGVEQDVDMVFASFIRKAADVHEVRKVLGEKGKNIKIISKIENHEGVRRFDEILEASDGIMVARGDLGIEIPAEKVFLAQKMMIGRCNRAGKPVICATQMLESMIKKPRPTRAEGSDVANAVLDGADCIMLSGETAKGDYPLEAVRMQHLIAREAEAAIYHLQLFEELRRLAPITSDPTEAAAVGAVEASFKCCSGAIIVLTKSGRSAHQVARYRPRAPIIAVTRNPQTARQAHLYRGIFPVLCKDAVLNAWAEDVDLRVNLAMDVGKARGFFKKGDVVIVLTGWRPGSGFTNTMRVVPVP
substance,measurement,value
"pyruvate kinase isoform M2 (PKM2), P52480 1-531 (enzyme; other documents disagree on this pair)",stoichiometry N,4
